# In paper PMC4338441, “Non-catalytic motor domains enable processive movement and functional diversification of the kinesin-14 Kar3” (eLife, 2015):
# T1: Halo-Kar3 (full-length Kar3 fused to a HaloTag) (S. cerevisiae (S288c), UniProt P17119 1-729, HaloTag TMR ligand (tetramethylrhodamine) or HaloTag Alexa488 ligand covalently bound to the HaloTag)
# T1 construct: methods and legends say amino-terminal; also called Kar3-Halo; Kar3-HALO; not shown: HaloTag, N-terminal, kept
# T1 sequence (looked up): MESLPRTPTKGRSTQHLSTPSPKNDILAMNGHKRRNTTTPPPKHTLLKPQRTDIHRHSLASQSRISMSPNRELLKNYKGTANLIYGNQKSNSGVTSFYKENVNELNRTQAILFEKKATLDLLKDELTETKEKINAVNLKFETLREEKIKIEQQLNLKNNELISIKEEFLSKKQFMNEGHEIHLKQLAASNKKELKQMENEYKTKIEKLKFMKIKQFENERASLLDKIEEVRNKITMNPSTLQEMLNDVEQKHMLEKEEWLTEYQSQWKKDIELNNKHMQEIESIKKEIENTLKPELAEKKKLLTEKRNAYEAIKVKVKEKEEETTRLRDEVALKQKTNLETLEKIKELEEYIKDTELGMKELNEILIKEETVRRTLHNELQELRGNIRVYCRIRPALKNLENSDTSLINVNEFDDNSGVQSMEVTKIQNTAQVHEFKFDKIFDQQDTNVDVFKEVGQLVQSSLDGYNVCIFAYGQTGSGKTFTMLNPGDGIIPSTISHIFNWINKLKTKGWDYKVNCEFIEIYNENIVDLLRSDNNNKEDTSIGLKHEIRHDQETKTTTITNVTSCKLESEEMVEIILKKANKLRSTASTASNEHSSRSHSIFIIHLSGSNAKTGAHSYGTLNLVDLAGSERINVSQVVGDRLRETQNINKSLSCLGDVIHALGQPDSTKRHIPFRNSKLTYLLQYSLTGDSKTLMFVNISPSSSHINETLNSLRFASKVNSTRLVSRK
# B1: Cik1–Kar3 heterodimer (full-length Cik1-1xFLAG with Halo-Kar3) (complex, S. cerevisiae (S288c))
# chain 1: MESLPRTPTKGRSTQHLSTPSPKNDILAMNGHKRRNTTTPPPKHTLLKPQRTDIHRHSLASQSRISMSPNRELLKNYKGTANLIYGNQKSNSGVTSFYKENVNELNRTQAILFEKKATLDLLKDELTETKEKINAVNLKFETLREEKIKIEQQLNLKNNELISIKEEFLSKKQFMNEGHEIHLKQLAASNKKELKQMENEYKTKIEKLKFMKIKQFENERASLLDKIEEVRNKITMNPSTLQEMLNDVEQKHMLEKEEWLTEYQSQWKKDIELNNKHMQEIESIKKEIENTLKPELAEKKKLLTEKRNAYEAIKVKVKEKEEETTRLRDEVALKQKTNLETLEKIKELEEYIKDTELGMKELNEILIKEETVRRTLHNELQELRGNIRVYCRIRPALKNLENSDTSLINVNEFDDNSGVQSMEVTKIQNTAQVHEFKFDKIFDQQDTNVDVFKEVGQLVQSSLDGYNVCIFAYGQTGSGKTFTMLNPGDGIIPSTISHIFNWINKLKTKGWDYKVNCEFIEIYNENIVDLLRSDNNNKEDTSIGLKHEIRHDQETKTTTITNVTSCKLESEEMVEIILKKANKLRSTASTASNEHSSRSHSIFIIHLSGSNAKTGAHSYGTLNLVDLAGSERINVSQVVGDRLRETQNINKSLSCLGDVIHALGQPDSTKRHIPFRNSKLTYLLQYSLTGDSKTLMFVNISPSSSHINETLNSLRFASKVNSTRLVSRK
# chain 2: MNNSKIPKLSFHSDPNNVTRDFPKTKRQKVQKREMDMILTPNNNKLNILHSSGSGIRRCYTDDTSATYTKKLTFGGDPKIIERVKNNERKVRKDIDSLLNAISEIEKESVRIHARELPAITLELDAKVKACRELQNEIDGLSTEMDLKDNQCDLQRKNVELSSKNIVSMHAVKVQEFENDLEEELSNAKREWTYKLMEVENLKPDERLTDEMRQLKTEFEEVNRKLFILQNENENECKNYKKELDKKFEIFKKVKNDARIELDGEQERLSKVLKDLQDTHGELKENIKTCRDEFNDFEKRIGEAEVNFHSMELAVVPLKKKLASTSQALTQVQEEKKQVEGEANNWKKKYVNELEKVQQELYTRQNLATSIEEIKGYTRCFAYANERQMPDEFHINYVDRCICENSGEKRVQVFDRVVLEEIHKDHKRLYNECIPFLEKYISKLINCSIIVVSQQPTAPMKKTLLKQLIEQYGENYKMTLNILHLDGSIKHSDVGLDNPTEIRDLSQDEECMNILTLDTKLGKDEESHSMNIYIGSMSTVQLNRELDDAPSVLSHILTKTKQCFVFKINAGENIEKALALAGKLKRTITLPQLD
# modifications: HaloTag TMR ligand or HaloTag Alexa488 ligand covalently bound to the HaloTag (imaging experiments)
# notes: also called Cik1–Kar3-Halo; Cik1–Halo–Kar3; source: if needed MonoS; not shown: HaloTag, N-terminal, kept
# Tests used:
# [1] = target: B1; assay: pull-down; 0.1–1 μM GST-tagged bait immobilised on glutathione sepharose; binding partner at a constant 0.5–1 μM; 25 mM Hepes pH 7.2, 250 mM NaCl, 1 mM MgCl2, 1 mM EGTA, 0.5 mM DTT, 0.05% NP-40; 1 hr at 4°C; SDS-PAGE, Coomassie; settings: both partners purified
# [2] = target: B1; assay: SEC; analytical size exclusion chromatography of Cik1–Kar3 and Bim1 individually or in combination; settings: both partners purified
# [3] = target: T1, Halo-Kar3 (full-length Kar3 fused to a …); assay: co-IP; two subunits co-overexpressed in S. cerevisiae; FLAG-tagged subunit bound to M2 anti-FLAG affinity agarose (lysis buffer 300 mM NaCl, washes 150 mM NaCl), HaloTag labelled on the resin, eluted with 3xFLAG peptide; Coomassie SDS-PAGE and fluorescence of the Halo-Kar3 subunit; settings: partners not purified
# [4] = target: T2, recombinant full-length Ndc80 complex (Ndc80p-6xHis/Nuf2p-EGFP and Spc24p/6xHis/Spc25p) (UniProt P40460 1-691; P33895 1-451; Q04477 1-213; P40014 1-221); assay: in vitro recruitment to microtubules (TIRF microscopy); bulk recruitment assay in the absence of nucleotide; TMR-labeled Kar3 motors and fluorescently labeled recombinant Ndc80 complex on surface-immobilised taxol-stabilized microtubules; settings: both partners purified
# T2 construct: Ndc80p, budding yeast; Nuf2p, budding yeast; Spc24p, budding yeast; Spc25p, budding yeast; also called Ndc80-eGFP complex; Ndc80 kinetochore complex; source: recombinant; expression and purification as described previously (Lampert et al., 2013; Lampert et al., 2010); copies: + + +
# T2 sequence (P40460 whole entry, chain 1 of 4): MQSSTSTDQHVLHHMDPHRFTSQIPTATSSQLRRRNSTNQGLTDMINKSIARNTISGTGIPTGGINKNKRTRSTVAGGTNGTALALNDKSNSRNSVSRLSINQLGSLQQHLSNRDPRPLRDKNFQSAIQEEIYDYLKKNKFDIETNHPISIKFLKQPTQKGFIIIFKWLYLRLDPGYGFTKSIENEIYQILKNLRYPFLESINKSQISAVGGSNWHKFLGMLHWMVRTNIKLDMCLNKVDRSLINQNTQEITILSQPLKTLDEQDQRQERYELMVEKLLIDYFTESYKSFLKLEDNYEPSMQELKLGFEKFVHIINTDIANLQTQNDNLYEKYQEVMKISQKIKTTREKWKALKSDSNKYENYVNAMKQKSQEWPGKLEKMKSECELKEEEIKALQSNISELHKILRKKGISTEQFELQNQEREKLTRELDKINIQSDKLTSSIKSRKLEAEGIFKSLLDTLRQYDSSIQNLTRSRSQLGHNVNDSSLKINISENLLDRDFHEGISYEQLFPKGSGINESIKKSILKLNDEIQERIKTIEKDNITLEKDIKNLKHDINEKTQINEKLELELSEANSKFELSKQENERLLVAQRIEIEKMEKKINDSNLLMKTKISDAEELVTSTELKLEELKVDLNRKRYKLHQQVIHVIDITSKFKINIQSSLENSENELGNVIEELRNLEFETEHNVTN
# T2 sequence (P33895 whole entry, chain 2 of 4): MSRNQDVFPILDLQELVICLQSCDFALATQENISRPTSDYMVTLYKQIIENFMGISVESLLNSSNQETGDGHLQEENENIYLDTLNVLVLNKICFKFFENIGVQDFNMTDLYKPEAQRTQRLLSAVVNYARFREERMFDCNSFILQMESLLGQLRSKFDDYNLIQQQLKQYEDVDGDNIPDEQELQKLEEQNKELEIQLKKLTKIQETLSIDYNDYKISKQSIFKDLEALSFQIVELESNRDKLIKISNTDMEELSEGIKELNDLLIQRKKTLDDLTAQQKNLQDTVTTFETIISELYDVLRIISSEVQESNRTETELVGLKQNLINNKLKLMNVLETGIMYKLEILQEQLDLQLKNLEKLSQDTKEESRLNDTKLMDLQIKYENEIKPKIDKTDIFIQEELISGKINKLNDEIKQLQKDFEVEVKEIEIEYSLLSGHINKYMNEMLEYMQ
# T2 sequence (Q04477 whole entry, chain 3 of 4): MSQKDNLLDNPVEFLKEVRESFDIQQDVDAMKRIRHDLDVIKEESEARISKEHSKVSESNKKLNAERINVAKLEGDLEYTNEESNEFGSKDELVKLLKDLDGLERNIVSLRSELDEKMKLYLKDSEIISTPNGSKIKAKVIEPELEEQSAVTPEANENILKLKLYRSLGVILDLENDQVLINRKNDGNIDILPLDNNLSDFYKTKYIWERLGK
# T2 sequence (P40014 whole entry, chain 4 of 4): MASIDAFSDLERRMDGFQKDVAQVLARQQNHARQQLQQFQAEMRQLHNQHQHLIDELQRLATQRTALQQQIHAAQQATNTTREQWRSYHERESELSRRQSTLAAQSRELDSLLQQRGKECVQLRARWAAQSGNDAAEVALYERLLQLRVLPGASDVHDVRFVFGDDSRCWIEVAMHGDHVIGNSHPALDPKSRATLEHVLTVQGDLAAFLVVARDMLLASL
binder,measurement,setting,value
"GST-Bim1^FL (natural protein, budding yeast, UniProt P40013 1-344, looked up, Bim1, the EB1 homologue of budding yeast, full length; also called full-length Bim1; source: recombinant; expressed and purified as described previously (Zimniak et al., 2009)) MSAGIGESRTELLTWLNGLLNLNYKKIEECGTGAAYCQIMDSIYGDLPMNRVKFNATAEYEFQTNYKILQSCFSRHGIEKTVYVDKLIRCKFQDNLEFLQWLKKHWIRHKDESVYDPDARRKYRPIITNNSATKPRTVSNPTTAKRSSSTGTGSAMSGGLATRHSSLGINGSRKTSVTQGQLVAIQAELTKSQETIGSLNEEIEQYKGTVSTLEIEREFYFNKLRDIEILVHTTQDLINEGVYKFNDETITGHGNGNGGALLRFVKKVESILYATAEGFEMNDGEDELNDKNLGEHGTVPNQGGYANSNGEVNGNEGSNHDVIMQNDEGEVGVSNNLIIDEETF",binding result,[1],binds
"Bim1 (as used in analytical size exclusion chromatography) (natural protein, budding yeast, UniProt P40013 1-344, looked up, Bim1, the EB1 homologue of budding yeast; source: recombinant; expressed and purified as described previously (Zimniak et al., 2009)) MSAGIGESRTELLTWLNGLLNLNYKKIEECGTGAAYCQIMDSIYGDLPMNRVKFNATAEYEFQTNYKILQSCFSRHGIEKTVYVDKLIRCKFQDNLEFLQWLKKHWIRHKDESVYDPDARRKYRPIITNNSATKPRTVSNPTTAKRSSSTGTGSAMSGGLATRHSSLGINGSRKTSVTQGQLVAIQAELTKSQETIGSLNEEIEQYKGTVSTLEIEREFYFNKLRDIEILVHTTQDLINEGVYKFNDETITGHGNGNGGALLRFVKKVESILYATAEGFEMNDGEDELNDKNLGEHGTVPNQGGYANSNGEVNGNEGSNHDVIMQNDEGEVGVSNNLIIDEETF",binding result,[2],binds
"Cik1-1xFLAG (full-length Cik1, aa 1–594) (natural protein, S. cerevisiae (S288c), UniProt Q01649 1-594, looked up, source: if needed MonoS; not shown: 1xFLAG, C-terminal, kept) MNNSKIPKLSFHSDPNNVTRDFPKTKRQKVQKREMDMILTPNNNKLNILHSSGSGIRRCYTDDTSATYTKKLTFGGDPKIIERVKNNERKVRKDIDSLLNAISEIEKESVRIHARELPAITLELDAKVKACRELQNEIDGLSTEMDLKDNQCDLQRKNVELSSKNIVSMHAVKVQEFENDLEEELSNAKREWTYKLMEVENLKPDERLTDEMRQLKTEFEEVNRKLFILQNENENECKNYKKELDKKFEIFKKVKNDARIELDGEQERLSKVLKDLQDTHGELKENIKTCRDEFNDFEKRIGEAEVNFHSMELAVVPLKKKLASTSQALTQVQEEKKQVEGEANNWKKKYVNELEKVQQELYTRQNLATSIEEIKGYTRCFAYANERQMPDEFHINYVDRCICENSGEKRVQVFDRVVLEEIHKDHKRLYNECIPFLEKYISKLINCSIIVVSQQPTAPMKKTLLKQLIEQYGENYKMTLNILHLDGSIKHSDVGLDNPTEIRDLSQDEECMNILTLDTKLGKDEESHSMNIYIGSMSTVQLNRELDDAPSVLSHILTKTKQCFVFKINAGENIEKALALAGKLKRTITLPQLD",binding result,[3],binds
B1,binding result,[4],binds
"GST-Bim1^185–344 (domain or fragment, budding yeast, UniProt P40013 185-344, looked up, also called C-terminal EB homology domain of Bim1; source: recombinant; expressed and purified as described previously (Zimniak et al., 2009)) IQAELTKSQETIGSLNEEIEQYKGTVSTLEIEREFYFNKLRDIEILVHTTQDLINEGVYKFNDETITGHGNGNGGALLRFVKKVESILYATAEGFEMNDGEDELNDKNLGEHGTVPNQGGYANSNGEVNGNEGSNHDVIMQNDEGEVGVSNNLIIDEETF",binding result,[1],binds
